Laboratory results: article PMC6965139, “Crystal structures of fukutin-related protein (FKRP), a ribitol-phosphate transferase related to muscular dystrophy” (Nature Communications, 2020)
One block for each molecule: values may come before it.

Columns and labels:
[1] = molecular target: T1, sFKRP (secreted type, His/Myc, WT) (Homo sapiens, UniProt Q9H9S5); experiment: ribitol-phosphate transfer, HPLC and MALDI-TOF MS; assay type: biochemical; conditions: 200 uM CDP-Rbo, 40 uM RboP-(phospho-)core M3 peptide, 10 mM MnCl2 and MgCl2, pH 6.5, 310 K; enzyme on anti-Myc agarose
T1 construct: gene FKRP; Asn33 to C-terminus in ss1-His/Myc-pcDNA3.1; secreted from HEK293T; immunoprecipitated on anti-c-Myc agarose; tags kept
T1 sequence (Q9H9S5 33-495): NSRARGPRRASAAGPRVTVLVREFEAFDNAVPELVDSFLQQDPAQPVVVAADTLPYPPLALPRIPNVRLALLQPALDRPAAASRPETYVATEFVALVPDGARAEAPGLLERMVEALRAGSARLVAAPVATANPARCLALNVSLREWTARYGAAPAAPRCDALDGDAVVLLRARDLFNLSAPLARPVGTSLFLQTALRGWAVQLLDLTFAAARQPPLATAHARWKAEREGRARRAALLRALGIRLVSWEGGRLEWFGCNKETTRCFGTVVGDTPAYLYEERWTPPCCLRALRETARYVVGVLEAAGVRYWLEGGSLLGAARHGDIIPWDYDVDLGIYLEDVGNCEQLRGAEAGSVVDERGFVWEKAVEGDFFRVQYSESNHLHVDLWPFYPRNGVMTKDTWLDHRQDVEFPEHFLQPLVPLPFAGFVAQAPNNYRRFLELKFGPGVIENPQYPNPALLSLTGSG

[2] = molecular target: secreted type of FKRP Tyr88Phe mutant (Asn33 to the C-terminus, His/Myc) (human) (UniProt Q9H9S5)
[3] = molecular target: secreted type of FKRP Ser221Arg mutant (Asn33 to the C-terminus, His/Myc) (human) (UniProt Q9H9S5)
[4] = molecular target: secreted type of FKRP Leu276Ile mutant (Asn33 to the C-terminus, His/Myc) (human) (UniProt Q9H9S5)
[5] = molecular target: the molecule itself; experiment: crystal structure; sFKRP without substrates, Mg2+ and Ba2+ bound forms; four subunits in the asymmetrical unit; hanging-drop vapor diffusion at 293 K, PEG 4000, HEPES-NaOH pH 7.5; interfaces judged with ePISA

Molecule: Nc1ccn([C@@H]2O[C@H](COP(=O)(O)OP(=O)(O)OC[C@@H](O)[C@@H](O)[C@@H](O)CO)[C@@H](O)[C@H]2O)c(=O)n1 [CDP-Rbo]
ribitol-phosphate transfer, HPLC and MALDI-TOF MS [1]: Enzymatic activity of sFKRP with CDP-Rbo and the RboP-(phospho-)core M3 peptide

B3: secreted type of FKRP Leu276Ile mutant (Asn33 to the C-terminus, His/Myc) (enzyme)
chain: NSRARGPRRASAAGPRVTVLVREFEAFDNAVPELVDSFLQQDPAQPVVVAADTLPYPPLALPRIPNVRLALLQPALDRPAAASRPETYVATEFVALVPDGARAEAPGLLERMVEALRAGSARLVAAPVATANPARCLALNVSLREWTARYGAAPAAPRCDALDGDAVVLLRARDLFNLSAPLARPVGTSLFLQTALRGWAVQLLDLTFAAARQPPLATAHARWKAEREGRARRAALLRALGIRIVSWEGGRLEWFGCNKETTRCFGTVVGDTPAYLYEERWTPPCCLRALRETARYVVGVLEAAGVRYWLEGGSLLGAARHGDIIPWDYDVDLGIYLEDVGNCEQLRGAEAGSVVDERGFVWEKAVEGDFFRVQYSESNHLHVDLWPFYPRNGVMTKDTWLDHRQDVEFPEHFLQPLVPLPFAGFVAQAPNNYRRFLELKFGPGVIENPQYPNPALLSLTGSG
glycosyltransferase activity with CDP-Rbo and the RboP-(phospho-)core M3 peptide, relative to the wild-type enzyme (% of the wild-type enzyme) [4]: 50

B4: soluble form of fukutin-related protein (sFKRP, residues 45 to C-terminus) (enzyme, human, UniProt Q9H9S5 45-495, looked up)
chain: AGPRVTVLVREFEAFDNAVPELVDSFLQQDPAQPVVVAADTLPYPPLALPRIPNVRLALLQPALDRPAAASRPETYVATEFVALVPDGARAEAPGLLERMVEALRAGSARLVAAPVATANPARCLALNVSLREWTARYGAAPAAPRCDALDGDAVVLLRARDLFNLSAPLARPVGTSLFLQTALRGWAVQLLDLTFAAARQPPLATAHARWKAEREGRARRAALLRALGIRLVSWEGGRLEWFGCNKETTRCFGTVVGDTPAYLYEERWTPPCCLRALRETARYVVGVLEAAGVRYWLEGGSLLGAARHGDIIPWDYDVDLGIYLEDVGNCEQLRGAEAGSVVDERGFVWEKAVEGDFFRVQYSESNHLHVDLWPFYPRNGVMTKDTWLDHRQDVEFPEHFLQPLVPLPFAGFVAQAPNNYRRFLELKFGPGVIENPQYPNPALLSLTGSG
notes: fukutin-related protein (FKRP), human, residues 45 to C-terminus, 451 amino acid residues in total; stem domain 45-287, catalytic domain 288-495; Sugar chains were removed by Endo H glycosidase before the last gel filtration; also called lumenal region of human FKRP; not shown: protein A, N-terminal, cleaved
stoichiometry N [5]: 4

Next, values leading:

glycosyltransferase activity with CDP-Rbo and the RboP-(phospho-)core M3 peptide, relative to the wild-type enzyme (% of the wild-type enzyme) [2]: 20
B1: secreted type of FKRP Tyr88Phe mutant (Asn33 to the C-terminus, His/Myc) (enzyme)
chain: NSRARGPRRASAAGPRVTVLVREFEAFDNAVPELVDSFLQQDPAQPVVVAADTLPFPPLALPRIPNVRLALLQPALDRPAAASRPETYVATEFVALVPDGARAEAPGLLERMVEALRAGSARLVAAPVATANPARCLALNVSLREWTARYGAAPAAPRCDALDGDAVVLLRARDLFNLSAPLARPVGTSLFLQTALRGWAVQLLDLTFAAARQPPLATAHARWKAEREGRARRAALLRALGIRLVSWEGGRLEWFGCNKETTRCFGTVVGDTPAYLYEERWTPPCCLRALRETARYVVGVLEAAGVRYWLEGGSLLGAARHGDIIPWDYDVDLGIYLEDVGNCEQLRGAEAGSVVDERGFVWEKAVEGDFFRVQYSESNHLHVDLWPFYPRNGVMTKDTWLDHRQDVEFPEHFLQPLVPLPFAGFVAQAPNNYRRFLELKFGPGVIENPQYPNPALLSLTGSG

glycosyltransferase activity with CDP-Rbo and the RboP-(phospho-)core M3 peptide, relative to the wild-type enzyme (% of the wild-type enzyme) [3]: 5
B2: secreted type of FKRP Ser221Arg mutant (Asn33 to the C-terminus, His/Myc) (enzyme)
chain: NSRARGPRRASAAGPRVTVLVREFEAFDNAVPELVDSFLQQDPAQPVVVAADTLPYPPLALPRIPNVRLALLQPALDRPAAASRPETYVATEFVALVPDGARAEAPGLLERMVEALRAGSARLVAAPVATANPARCLALNVSLREWTARYGAAPAAPRCDALDGDAVVLLRARDLFNLSAPLARPVGTRLFLQTALRGWAVQLLDLTFAAARQPPLATAHARWKAEREGRARRAALLRALGIRLVSWEGGRLEWFGCNKETTRCFGTVVGDTPAYLYEERWTPPCCLRALRETARYVVGVLEAAGVRYWLEGGSLLGAARHGDIIPWDYDVDLGIYLEDVGNCEQLRGAEAGSVVDERGFVWEKAVEGDFFRVQYSESNHLHVDLWPFYPRNGVMTKDTWLDHRQDVEFPEHFLQPLVPLPFAGFVAQAPNNYRRFLELKFGPGVIENPQYPNPALLSLTGSG
